# In IntAct's records for PubMed 12612073:
# B1: Estrogen receptor (Homo sapiens), P03372 (parent)
# chain: MTMTLHTKASGMALLHQIQGNELEPLNRPQLKIPLERPLGEVYLDSSKPAVYNYPEGAAYEFNAAAAANAQVYGQTGLPYGPGSEAAAFGSNGLGGFPPLNSVSPSPLMLLHPPPQLSPFLQPHGQQVPYYLENEPSGYTVREAGPPAFYRPNSDNRRQGGRERLASTNDKGSMAMESAKETRYCAVCNDYASGYHYGVWSCEGCKAFFKRSIQGHNDYMCPATNQCTIDKNRRKSCQACRLRKCYEVGMMKGGIRKDRRGGRMLKHKRQRDDGEGRGEVGSAGDMRAANLWPSPLMIKRSKKNSLALSLTADQMVSALLDAEPPILYSEYDPTRPFSEASMMGLLTNLADRELVHMINWAKRVPGFVDLTLHDQVHLLECAWLEILMIGLVWRSMEHPGKLLFAPNLLLDRNQGKCVEGMVEIFDMLLATSSRFRMMNLQGEEFVCLKSIILLNSGVYTFLSSTLKSLEEKDHIHRVLDKITDTLIHLMAKAGLTLQQQHQRLAQLLLILSHIRHMSNKGMEHLYSMKCKNVVPLYDLLLEMLDAHRLHAPTSRGGASVEETDQSHLATAGSTSSHSLQKYYITGEAEGFPATV
# B2: Progesterone receptor (Homo sapiens), P06401-1 (parent)
# chain: MTELKAKGPRAPHVAGGPPSPEVGSPLLCRPAAGPFPGSQTSDTLPEVSAIPISLDGLLFPRPCQGQDPSDEKTQDQQSLSDVEGAYSRAEATRGAGGSSSSPPEKDSGLLDSVLDTLLAPSGPGQSQPSPPACEVTSSWCLFGPELPEDPPAAPATQRVLSPLMSRSGCKVGDSSGTAAAHKVLPRGLSPARQLLLPASESPHWSGAPVKPSPQAAAVEVEEEDGSESEESAGPLLKGKPRALGGAAAGGGAAAVPPGAAAGGVALVPKEDSRFSAPRVALVEQDAPMAPGRSPLATTVMDFIHVPILPLNHALLAARTRQLLEDESYDGGAGAASAFAPPRSSPCASSTPVAVGDFPDCAYPPDAEPKDDAYPLYSDFQPPALKIKEEEEGAEASARSPRSYLVAGANPAAFPDFPLGPPPPLPPRATPSRPGEAAVTAAPASASVSSASSSGSTLECILYKAEGAPPQQGPFAPPPCKAPGASGCLLPRDGLPSTSASAAAAGAAPALYPALGLNGLPQLGYQAAVLKEGLPQVYPPYLNYLRPDSEASQSPQYSFESLPQKICLICGDEASGCHYGVLTCGSCKVFFKRAMEGQHNYLCAGRNDCIVDKIRRKNCPACRLRKCCQAGMVLGGRKFKKFNKVRVVRALDAVALPQPVGVPNESQALSQRFTFSPGQDIQLIPPLINLLMSIEPDVIYAGHDNTKPDTSSSLLTSLNQLGERQLLSVVKWSKSLPGFRNLHIDDQITLIQYSWMSLMVFGLGWRSYKHVSGQMLYFAPDLILNEQRMKESSFYSLCLTMWQIPQEFVKLQVSQEEFLCMKVLLLLNTIPLEGLRSQTQFEEMRSSYIRELIKAIGLRQKGVVSSSQRFYQLTKLLDNLHDLVKQLHLYCLNTFIQSRALSVEFPEMMSEVIAAQLPKILAGMVKPLLFHKK
# Variants of: B1
# Settings: with PGR
row,effect of a mutation on the interaction,Variant
1,with no effect,Y537F

# Variants of: B2
# Settings: with esr1_human ESR1, P03372
row,effect of a mutation on the interaction,Variant
1,with no effect,P422A;P423A;P426A

# Variants of: B2
# Settings: with src_human SRC
row,effect of a mutation on the interaction,Variant
1,disrupting interaction strength,P422A;P423A;P426A
